Data as given in paper PMC3471233.

Molecular target: GFP-CLASP2 S1234A mutant (human)
Assay: co-IP

- reduction of co-immunoprecipitated Plk1 relative to wild type: 40%
Substance: Polo-like kinase 1 (Plk1), endogenous (from UniProt P53350 1-603) (natural protein)
